Experimental data as given in article PMC6195595 (2018).
Numbering of substitutions follows the chain as printed.

How the values were obtained:
Assay in all cases: ITC
[1] = target: T1, Kj12C-^NDD Q26K, E28A (modified Kj12C-^NDD) (Xenorhabdus stockiae KJ12.1)
T1 chain: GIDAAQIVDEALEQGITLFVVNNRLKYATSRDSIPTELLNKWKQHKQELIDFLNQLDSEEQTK

[2] = target: Kj12A-^CDD peptide (C-terminal docking domain of Kj12A) (Xenorhabdus stockiae KJ12.1)
[3] = target: Kj12B-^CDD_(short) peptide G1566A (printed as G1565 replaced with alanine) (Xenorhabdus stockiae KJ12.1)
[4] = target: Kj12B-^CDD_(short) peptide L1564A (Xenorhabdus stockiae KJ12.1, L1564A (stands in the printed letters))
[5] = target: Kj12B-CDDshort R1565E peptide (Xenorhabdus stockiae KJ12.1, R1565E (stands in the printed letters))

B1: Kj12B-^CDD peptide (C-terminal docking domain of Kj12B) (peptide)
peptide: LLKEKRKHFQAEQNSSQEYLRGEI
modifications: Limits taken from PDB 6EWU (isolated NDD). Residue 1 is Gly as in the entity, possibly a SUMO-cleavage/cloning replacement of the native Met. In vivo, the variant was in full-length Kj12C.
Work on B1 yielded a Kd [1] of 80 µM.

B2: Kj12B-^NDD (N-terminal docking domain of Kj12B) (domain or fragment)
chain: MKNAAKIVNEALNQGITLFVSDNKLKYKTNRDSIPSELLEEWKQHKQELIDFLTQLESEEES
For B2, the Kd [2] was over 100 µM.

B3: Kj12C-^NDD (N-terminal docking domain of Kj12C) (domain or fragment)
chain: T1 chain with K26Q, A28E
Work on B3 yielded a Kd [3] of over 100 µM, a Kd [4] of over 100 µM and a Kd [5] of over 100 µM.

B4: Kj12A-^NDD (N-terminal docking domain of Kj12A) (domain or fragment)
chain: MKNAAQIVDEALNQGITLFVADNRLQYETSRDNIPEELLNEWKYYRQDLIDFLQQLDAKEETQ
With B4 the Kd [2] was over 100 µM.
